Positions of bridges follow the written chain, without caps; N, C: chain ends. No end group written: not given here.
T1: hu-IL-2Rβ subunit (human, UniProt P14784 27-240, limits assumed)
T1 construct: also called human interleukin-2 receptor subunit β; CD122
T1 sequence (looked up): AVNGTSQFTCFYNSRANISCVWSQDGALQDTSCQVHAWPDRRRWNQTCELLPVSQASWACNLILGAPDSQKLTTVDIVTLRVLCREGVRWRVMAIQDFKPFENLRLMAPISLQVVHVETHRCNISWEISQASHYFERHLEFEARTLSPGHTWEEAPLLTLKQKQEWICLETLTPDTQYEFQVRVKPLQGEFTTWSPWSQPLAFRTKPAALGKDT


Target: T1, hu-IL-2Rβ subunit
Test: phage ELISA competition assay

IC50, < 100 µM:
WNPCWIAQLGDLCDMV [SEQ ID NO 194]
GAGVLHRWPCWMAKLGDLCDLD [SEQ ID NO 198]
YKPCWIAQLGELCELE [SEQ ID NO 183]
ALVGGTFYPCYVAHLGELCDIE (disulfide 10-19 (inferred)) [SEQ ID NO 204]
SNPCWMAQLWELCDLE [SEQ ID NO 182]
WLPCWMAKLGDLCELE [SEQ ID NO 186]
SWPCWMAQLGDLCDLDGSAGAS [SEQ ID NO 220]
IDRADGWKPCWIAQVGELCVLE [SEQ ID NO 205]
WSPCWIATLGELCDLD [SEQ ID NO 193]
WKPCWLAQLGELCDLERPSTTS [SEQ ID NO 221]
GQVVETSLPCWEAQLGELCVLD [SEQ ID NO 202]
WLPCWMAQLGELCVME [SEQ ID NO 187]
WWPCSSAELGEICDFD [SEQ ID NO 191]
LHPCWMAQLGELCDLE (disulfide 4-13 (inferred)) [SEQ ID NO 188]
WKPCWMARLGELCDIEDTKVNA [SEQ ID NO 213]
SLPCWMAQLGELCDLV [SEQ ID NO 189]
WLPCWLAHLGDICDLQ [SEQ ID NO 195]
VMSPTRWLPCWIAKLGELCDLE [SEQ ID NO 88]
IRSCSPCWSADVGELCDLECEW [SEQ ID NO 91]
WFPCWMAQLGQLCDLE [SEQ ID NO 89]
SKPCWMAQLGELCDLDVWNLQM [SEQ ID NO 218]
WRPCWRAYLGELCDLEAMPRAT [SEQ ID NO 90]
RLPCWRAQLGDLCELDWGLDMG [SEQ ID NO 217]
FYPCWKARLGELCELEELRGYY [SEQ ID NO 215]
WYPCWMAHLGDVCDLESFGQTE [SEQ ID NO 210]
YRRERVEFPCWLAQLGELCDKE [SEQ ID NO 206]
YKPCQMAQLGELCDLDVDNKAE [SEQ ID NO 211]
DTGRDGWKPCWMALLGELCELE [SEQ ID NO 199]
SGHWYPCWMARLGELCDMEERA [SEQ ID NO 92]
EQGMLGYFPCWKALLGDVCDLD [SEQ ID NO 200]
WKPCWMAGLGELCELD [SEQ ID NO 190]
WYPCWIAQLGEVCDLEKQTGSV [SEQ ID NO 209]
WQPCWRAKLGELCDLE [SEQ ID NO 192]
IPKGESWFPCWMAAMGELCDLE (disulfide 10-19 (inferred)) [SEQ ID NO 208]
WRVTASLQPCWMAQLGELCDLN [SEQ ID NO 201]
SLPCWIARLGELCDLDGYDGEE [SEQ ID NO 214]
AVSHGNWLPCYIAQLGELCDLD [SEQ ID NO 207]
QPCWLAQVGDLCDLLWPGPL [SEQ ID NO 79]
WQPCWMAQLGELCDLE [SEQ ID NO 184]
GYPCWLAQLGDYCDLDAGAPSW [SEQ ID NO 219]
WKPCWLAQLGDLCEME [SEQ ID NO 185]
FKPCWIANLGELCDMDDERSSE (disulfide 4-13 (inferred)) [SEQ ID NO 212]
WDVHAIRNPCWLAKLGDLCDLD [SEQ ID NO 197]
WKPCWIADLGELCDLAPAWHEY [SEQ ID NO 216]
TVGQFEWYPCSTAQLGELCDLD [SEQ ID NO 203]
WLSPPSYLPCWMAQLGELCDLV [SEQ ID NO 196]

From patent US20240101959A1, “USE OF IL-2R-BETA-GAMMA AGONIST PEPTIDES IN CELL MANUFACTURING” (MEDIKINE, INC., priority 2022, published 2024)
